Assay results as given in article PMC3361975.

What follows are substances tested on NC(=O)c1ccc[n+]([C@@H]2O[C@H](COP(=O)(O)OP(=O)(O)OC[C@H]3O[C@@H](n4cnc5c(N)ncnc54)[C@H](O)[C@@H]3O)[C@@H](O)[C@H]2O)c1 (assay: purified protein). Details: phosphite and NAD+ varied, 100 mM MOPS pH 7.25, 25 °C.

Substance	Km
17X-PTDH (Stutzerimonas stutzeri; A319E/A325V/C336D/D13E/E130K/E175A/E332N/I150F/I313L/L276Q/M26I/Q132R/Q137R/Q215L/R275Q/R301A/V315A/V71I)	0.216 (0.015) mM
17X-PTDH (Stutzerimonas stutzeri; A319E/A325V/C336D/D13E/E130K/E175A/E332N/I150F/I313L/L276Q/M26I/Q132R/Q137R/Q215L/R275Q/V315A/V71I)	0.022 (0.006) mM
17X-PTDH (Stutzerimonas stutzeri; A319E/A325V/C336D/D13E/E130K/E175A/E332N/I150F/I313L/L276Q/M26I/Q132R/Q137R/Q215L/R275Q/R301K/V315A/V71I)	0.074 (0.007) mM
